Measurements published in article PMC11324745.

Target: Polθ-hel (DNA polymerase theta helicase domain) (human, UniProt O75417 1-894)
Experiment: EMSA

Chain of Polθ-hel (DNA polymerase theta helicase domain) (O75417 1-894): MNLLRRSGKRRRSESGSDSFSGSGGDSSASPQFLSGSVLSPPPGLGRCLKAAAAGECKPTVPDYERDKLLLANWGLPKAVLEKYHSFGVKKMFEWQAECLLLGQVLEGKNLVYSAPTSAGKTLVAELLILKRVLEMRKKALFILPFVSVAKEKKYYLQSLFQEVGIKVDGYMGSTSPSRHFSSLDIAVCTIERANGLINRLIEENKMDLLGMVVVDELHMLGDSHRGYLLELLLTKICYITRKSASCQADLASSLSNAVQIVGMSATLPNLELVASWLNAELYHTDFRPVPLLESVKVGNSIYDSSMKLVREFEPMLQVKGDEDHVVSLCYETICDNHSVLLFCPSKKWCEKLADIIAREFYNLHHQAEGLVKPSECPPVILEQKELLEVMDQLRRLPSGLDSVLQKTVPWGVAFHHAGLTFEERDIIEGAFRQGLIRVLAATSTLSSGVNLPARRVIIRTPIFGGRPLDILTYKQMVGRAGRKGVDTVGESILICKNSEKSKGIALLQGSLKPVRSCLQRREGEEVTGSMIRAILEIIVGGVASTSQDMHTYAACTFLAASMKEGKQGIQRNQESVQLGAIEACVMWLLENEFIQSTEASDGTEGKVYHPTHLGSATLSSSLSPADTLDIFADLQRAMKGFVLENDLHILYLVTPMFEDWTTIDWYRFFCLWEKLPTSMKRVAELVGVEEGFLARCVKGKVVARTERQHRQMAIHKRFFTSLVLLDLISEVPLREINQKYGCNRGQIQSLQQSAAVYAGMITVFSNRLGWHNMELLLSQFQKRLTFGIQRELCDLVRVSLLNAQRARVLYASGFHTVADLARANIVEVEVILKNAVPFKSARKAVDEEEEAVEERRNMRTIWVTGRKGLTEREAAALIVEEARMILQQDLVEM

TTTTTTTTTTTTTTTTTTTTTTTTTTTTT (ssDNA) [ssDNA RP316]
binding result: binds
